# What was measured:
# [1] = pNPA method esterase (carboxylesterase) activity assay of spore productions; format: biochemical; settings: 30° C. for 30 minutes, absorbance at 400
# Description: Each of the identified enzymes were evaluated for esterase activity assay using pNBA method described below. Determination of carboxylesterase activity of cargo enzyme in Bacillus thuringiensis spore productions or of free enzyme productions. Three active carboxylesterases cloned into pBCm (Bt EO) and pET28a (E. coli BL21) systems: pnbA (B. subtilis), PytH2 (Sphingobium wenxiniae strain), and MsE1 (Methylobacterium sp). p-Nitrophenyl acetate was the substrate in assays for esterase activity. The hydrolysis of p-nitrophenyl acetate releases p-nitrophenol and acetate, and while p-nitrophenyl acetate is colorless, p-nitrophenol is yellow.
# 6 mg p-Nitrophenyl acetate (pNPA, CAS #830-03-5, MW: 181.1 g/mol) was weighed and dissolved in 1 mL methanol (CAS #67-56-1, MW: 32.04 g/mol). Stored at −20° C. and kept on ice when preparing reactions.
# 8.0 g sodium chloride (NaCl, CAS #7647-14-5, MW: 58.44 g/mol), 1.44 g sodium phosphate dibasic was dissolved (Na2HPO4, CAS #7558-79-4, MW: 141.96 g/mol), and 0.24 g potassium phosphate monobasic (KH2PO4, CAS #7778-77-0, 136.09 g/mol) in 800 mL DI H20, then adjust pH to 7.4 using hydrochloric acid (HCl, CAS #7647-01-0, MW: 36.46 g/mol). Make 100 mL aliquots and autoclave.
# Esterase from rabbit liver (CAS #9016-18-6, Sigma E0887-powder). Store at −20° C. To prepare a stock dissolve 1 mg in 1 mL PBS, kept on ice when using.
# Up to 1 mL spore production was pelleted up for 5 min at max speed. Supernatant was discarded without disturbing spore pellet and suspend pellet in ice-cold PBS. Spores kept suspended on ice until use.
# The assay was run at 30° C. for 30 minutes. The assay was shaken continuously. Activity was read on (A) 400 BioTek Synergy/HTX microplate reader was used. The results of pNPA hydrolysis are shown in Table 3 depicting carboxylesterase enzyme activity for each of the five strains using pNPA hydrolysis.
# [2] = Biological permethrin assay for esterase activity (activity units of esterases); format: biochemical; settings: esterases used in reaction mix for scud assay
# Description: A biological permethrin assay was performed for control, and three esterases pnbA, pytH2 and MsE1. The sensitivity of scuds (Hyalella Azteca) to permethrin was tested with three esterases pnbA, pytH2 and MsE1.
# For control and each of the three esterases pnbA, pytH2 and MsE1, ten scuds were exposed to permethrin and one of pnbA, pytH2 or MsE1.
# • 100 μL 50% MeOH in PBS • 0.2 μg/μL
# • 37 degree C. • 18 hr • Shanking 1000 rpm Transferred 20 μL rxn mix [4 μg] to 100 mL [containing 10 scuds] At time, 24 h and 48 h the ten scuds were scored: A=Alive and Moving actively BA=Barely Alive—Difficulty swimming away; only legs are moving D=Dead—Not moving at all The results of which are shown in FIGS. 8 and 9.
Molecule,pNPA hydrolysis [1],Activity units [2]
"E2: pyrethroid-hydrolyzing carboxylesterase pnbA from B. subtilis, amino acid SEQ. ID No. 2 (protein, listed as Bacillus subtilis) MTHQIVTTQYGKVKGTTENGVHKWKGIPYAKPPVGQWRFKAPEPPEVWEDVLDATAYGSICPQPSDLLSLSYTELPRQSEDCLYVNVFAPDTPSKNLPVMVWIHGGAFYLGAGSEPLYDGSKLAAQGEVIVVTLNYRLGPFGFLHLSSFNEAYSDNLGLLDQAAALKWVRENISAFGGDPDNVTVFGESAGGMSIAALLAMPAAKGLFQICAIMESGASRTMTICEQAASTSAAFLQVLGINEGQLDKLHTVSAEDLLKAADQLRIAEKENFQLFFQPALDPKTLPEEPEKAIAEGAASGIPLLIGTTRDEGYLFFTPDSDVHSQETLDAALEYLLGKPLAEKVADLYPRSLESQIHMMTDLLEWRPAVAYASAQSHYAPVWMYREDWHPKKPPYNKAFHALELPFVFGNLDGLERMAKAEITDEVKQLSHTIQSAWITFAKTGNPSTEAVNWPAYHEETRETLILDSEITIENDPESEICRQKLEPSKGE",19.7 ± 1.4 nmol pNPA/min/1E+8 spores,31.4
"E1: pyrethroid-hydrolyzing carboxylesterase pytZ from Ochrobactrum sp., amino acid SEQ. ID No. 1 (protein, Ochrobactrum sp) MTTQTYEHRLKAGAKGAPLFIVFHGTGGDENQFFGLAEQLLPDATIMSPRGDVSEYGAARFFRRTGEGVYDMEDLARATDKMAGFIAALAAEYKTSEVIGLGYSNGANIMANLLIEKGRVEDKAALLHPLVPFRPKDNPALEGAKILMTAGRMDPICPPDLTEALAQYFERQKADVELVWHPGGHELRQTELAAVQSLLAY",BDL,–
"E5: esterase EstP from Klebsiella sp., amino acid SEQ. ID No. 5 (protein, Klebsiella) MEICTKGSRKHLTSRASEPSYNVPENQYVLYVVSSTLSIVICQLVKVAESKKSRFSGAIEKLNERLDSLKDYRIINRDLVVKDLERLKKRFDTEVINAELSEQLAKINVNLSRSYSEKGYLRLEKATGSENEWWAKKPSQNDDWQQFEPDGYTIFSSRDHYASLEKSYSDYEIEAKIPLPLRRGICAVVLYPEYISRICVLPESRSIQREQENFTKLRDKGIALSKKDWQAKLTIDELAEQEKERATINKRLGYFATEHEKVGIVHKALEPKLICPFQQIEKEWRQCKVKSKSTFPNSMTFVQNPAYQAVHSGFKKLKEQIGLADEDILLSLEKIEAIGLVNMPLLYERWCLLQIIKVLTQAFRYQPEDNWKRKLIANIQGNEEQISIQFFNPSVSRAITLQYEPFLANGKRPDFVLDVEAITKSGNQISKRLVVDAKYYSAAYLKQRGGIGGVIHELYNGKDYSECQENSVFVLHPVLDAVEKVVSPQEWAKDSYLGELSMFDWEPAHHQRQATNYGAVCANPMKSQRYLDEIQRMLGMFLQYGIEDNTSFRGASDDTHAVNFCVSCGSEKVVDVTKSMSSNNQKRWYRCNECTHFTVYTHCGTCNTRLIKNGEYWTYLSLMPMSSINIKCPNCESPV",BDL,–
"E4: pyrethroid-hydrolyzing carboxylesterase MsE1 from Methylobacterium sp., amino acid SEQ. ID No. 4 (protein, Methylobacterium) MTQDTTGFIFIREEPGPDTTRPLMLLHGTGGDENDLLPLGRMVAPEAALLAPRGGVSENGMPRFFRRLAEGVFDEADLRRRTGDLAAFVAASRARYGLGAPLALGFSNGANIAASLLMLRPETLTGAVLIRPMVPFAEPPAADLAGRPVLILSGAMDPIVPVENARRLAQQLSASGARVEHRILPAGHGLSQADVSQALAWLRSLPGPEAA",30.6 ± 0.0 nmol pNPA/min/1E+8 spores,39.5

# — US20220047684A1, “ENZYMES AND METHODS FOR PREVENTING AND TREATING […] IN ANIMALS” (Ecto Development Corporation, priority 2020, published 2022)
